Data on three molecules can be found in PMC5440694 (Nature Communications, 2017).

Experiment in all cases: BLI
Common to all, as to details: both partners purified

Experiment [1] has as its target biotinylated HA0 ectodomain of A/New Caledonia/20/1999 (H1N1) (Influenza A virus A/New …, UniProt Q6WG00, strain, biotin on the BirA biotinylation site).
The target in experiment [2] is biotinylated HA0 ectodomain of A/Perth/16/2009 (H3N2) (Influenza A virus A/Perth/16/2009 (H3N2), UniProt C6KNH7, strain, biotin on the BirA biotinylation site).
Experiment [3] deals with biotinylated HA0 ectodomain of A/Solomon Islands/3/2006 (H1N1) (Influenza A virus A/Solomon …, UniProt A7Y8I1, strain, biotin on the BirA biotinylation site).
Experiment [4] addresses biotinylated HA0 ectodomain of A/Panama/2007/1999 (H3N2) (Influenza A virus A/Panama/2007/1999 …, UniProt Q1K9M3, strain, biotin on the BirA biotinylation site).
Experiment [5] concerns the target biotinylated HA0 ectodomain of A/Beijing/262/1995 (H1N1) (Influenza A virus A/Beijing/262/1995 …, UniProt Q6WG01, strain, biotin on the BirA biotinylation site).

B1: wild-type C05 Fab (VVSAGW), expressed in insect cells (Fab, V domains shown)
VH: QVQLQESGGGLVQPGESLRLSCVGSGSSFGESTLSYYAVSWVRQAPGKGLEWLSIINAGGGDIDYADSVEGRFTISRDNSKETLYLQMTNLRVEDTGVYYCAKHMSMQQVVSAGWERADLVGDAFDVWGQGTMVTVSS
VL: DIQLTQSPSSLSASVGDRVTLTCQASQDIRKFLNWYQQKPGKGPKLLIYDASNLQRGVPSRFSGGGSGTDFTLIISSLQPEDVGTYYCQQYDGLPFTFGGGTKVVIK
As a reminder, the Kd is the free concentration of one partner at which half of the binding sites on the other are occupied at equilibrium, for simple one-to-one binding. Low values mean a tighter complex, high ones a looser complex. Turning to B1, the Kd is 6.3 ± 0.1 nM in experiment [1]; 23.4 ± 0.1 nM in experiment [2]; 91.4 ± 0.9 nM in experiment [3]; 926 ± 12.1 nM in experiment [4]; 23.1 ± 0.6 nM in experiment [5].

B2: C05 Fab variant VVSSGW, expressed in insect cells (Fab, V domains shown)
VH: QVQLQESGGGLVQPGESLRLSCVGSGSSFGESTLSYYAVSWVRQAPGKGLEWLSIINAGGGDIDYADSVEGRFTISRDNSKETLYLQMTNLRVEDTGVYYCAKHMSMQQVVSSGWERADLVGDAFDVWGQGTMVTVSS
VL: DIQLTQSPSSLSASVGDRVTLTCQASQDIRKFLNWYQQKPGKGPKLLIYDASNLQRGVPSRFSGGGSGTDFTLIISSLQPEDVGTYYCQQYDGLPFTFGGGTKVVIK
For B2, the Kd was 2.9 ± 0.1 nM in experiment [1]; 43.7 ± 0.5 nM in experiment [2]; 4.6 ± 0.6 nM in experiment [3]; 1290 ± 71 nM in experiment [4]; 259 ± 2.8 nM in experiment [5].

B3: C05 Fab variant VTGSGW, expressed in insect cells (Fab, V domains shown)
VH: QVQLQESGGGLVQPGESLRLSCVGSGSSFGESTLSYYAVSWVRQAPGKGLEWLSIINAGGGDIDYADSVEGRFTISRDNSKETLYLQMTNLRVEDTGVYYCAKHMSMQQVTGSGWERADLVGDAFDVWGQGTMVTVSS
VL: DIQLTQSPSSLSASVGDRVTLTCQASQDIRKFLNWYQQKPGKGPKLLIYDASNLQRGVPSRFSGGGSGTDFTLIISSLQPEDVGTYYCQQYDGLPFTFGGGTKVVIK
Turning to B3, the Kd was determined as 1.1 ± 0.2 nM in experiment [1]; 125.1 ± 1.2 nM in experiment [2]; 116 ± 1.9 nM in experiment [3]; 4340 ± 207 nM in experiment [4]; 182.3 ± 0.5 nM in experiment [5].
